# Laboratory results taken from patent publication US20250381293A1, “PEPTIDES AND MAGNETIC PARTICLE-PEPTIDE CONJUGATES FOR PREVENTION OR TREATMENT OF GLAUCOMA” (THE GOVERNORS OF THE UNIVERSITY OF ALBERTA, priority 2022, published 2025).
# Experiments:
# XFS materials = experiment: Ex vivo targeting of Cy5-labeled phage-displayed peptides on exfoliative human lens capsules; assay type: binding; settings: 1 hr, 37° C., human aqueous humor/BSS; fluorescence microscopy
# Method: Amplified phages (1×10^11 pfu) were resuspended in 0.3 M NaHCO3 (pH 8.6) containing 10 μg Cy5 dye and incubated for 2 hr at room temperature in the dark. Subsequent to phage/fluorophore incubation, 40 μl of 10 mM lysine was added to interact with remaining free Cy5 dye molecules in the solution. The volume of the reaction mixture was subsequently brought up to 1 ml with PBS buffer, and the phages were purified with two rounds of 20% (w/v) polyethylene glycol-8000, 2.5 M NaCl precipitation. The labeled phages resuspended in BSS solution.
# Fluorescently labeled phages carrying identified targeting peptides as well as wild-type phages without peptide-encoding inserts were incubated with exfoliative human lens capsules in a 100-μl solution containing equal volumes of human aqueous humor fluid and BSS solution. The incubation was allowed to continue for 1 hr at 37° C. After serially washing with BSST buffer (0.1, 0.3%), three times each, the lens capsules were mounted on microscope slides and were examined under an Olympus IX81 inverted fluorescence microscope (Olympus Corporation, Tokyo, Japan). The location of XFS materials on the surface of the lens capsule was confirmed in bright-field mode prior to fluorescence imaging.
# hTM cells [1] = experiment: Live/dead cell viability assay on hTM monolayers; assay type: cell-based; settings: free peptide solution, 1 mM; mean±1 SD, n≥3
# Method: Primary human trabecular meshwork (hTM) cells were obtained from ScienCell Research Laboratories (Carlsbad, CA), and maintained in TMCM medium (ScienCell, no. 6591). Primary cell culture was passaged according to the manufacturer's instructions. Passage three cells were seeded on tissue culture plates coated with gelatin and media were refreshed every 2-3 days. These monolayer cultures were used in subsequent experiments upon reaching 95-100% confluency.
# Cell viability was further assayed using LIVE/DEAD® viability/cytotoxicity kit (Molecular Probes). Monolayers of hTM cells were treated in triplicates with peptides alone in solution (1 mM) and in conjugation with MPs (100 μg). Cell viability was then assessed according to the manufacturer's protocol. The kit is based on calcein AM/ethidium homodimer-1 (EthD-1) system, where calcein AM detects cellular esterase activity of live cells and EthD-1 stains nuclei of dead cells. A similar live/dead assay was used to investigate the effect of MP-peptide conjugates on the viability of hTM cells in the presence of the rotating magnetic field. […] The viability of hTM cells was then assessed as described above. […] The cells were treated with the rotating magnetic field for 10 min and then analyzed using live/dead assay as described before. […]
# hTM cells [2] = experiment: DNA fragmentation analysis (apoptosis); assay type: cell-based, human; settings: free peptide solution, 24 hr (0.5 mM, elsewhere in the source)
# Method: Effect of peptide-particle conjugates and peptide solutions on the induction of apoptotic DNA fragmentation was analyzed in hTM cells. […] Cells were recovered from wells using a cell scraper. DNA was isolated and purified using DNeasy blood and tissue kit (Qiagen). Extracted DNA molecules from control and treated hTM cells were subjected to 2% agarose gel electrophoresis and visualized by SYBR green staining.
Sequence,binding of Cy5-labeled phages to XFS materials on lens capsule (XFS materials),% of live cells (hTM cells [1]) [%],apoptotic chromosomal DNA fragmentation (hTM cells [2])
IPLLNPGSMQLS [p-IPL],specific binding to XFS materials,99.00 ± 0.37,chromosomal DNA remained intact
LPSYNLHPHVPP [p-LPS],specific binding to XFS materials,99.12 ± 0.94,chromosomal DNA remained intact
